Results on two proteins are retold here after article PMC4120840.

Positions count from the first letter of the chain named. Names and notes keep the numbering of the source.

Substrate in this data set: Nc1ncnc2c1ncn2[C@@H]1O[C@H](COP(=O)(O)OP(=O)(O)OP(=O)(O)O)[C@@H](O)[C@H]1O
In words: purified protein. The settings on record: MgCl2 UBA3 nucleotide binding pocket. The format is biochemical, Homo sapiens.

B1: UBA3 (NEDD8 activating enzyme, NAE) (Homo sapiens) (protein)
chain: ADGEEPEKKRRRIEELLAEKMAVDGGCGDTGDWEGRWNHVKKFLERSGPFTHPDFEPSTESLQFLLDTCKVLVIGAGGLGCELLKNLALSGFRQIHVIDMDTIDVSNLNRQFLFRPKDIGRPKAEVAAEFLNDRVPNCNVVPHFNKIQDFNDTFYRQFHIIVCGLDSIIARRWINGMLISLLNYEDGVLDPSSIVPLIDGGTEGFKGNARVILPGMTACIECTLELYPPQVNFPMCTIASMPRLPEHCIEYVRMLQWPKEQPFGEGVPLDGDDPEHIQWIFQKSLERASQYNIRGVTYRLTQGVVKRIIPAVASTNAVIAAVCATEVFKIATSAYIPLNNYLVFNDVDGLYTYTFEAERKENCPACSQLPQNIQFSPSAKLQEVLDYLTNSASLQMKSPAITATLEGKNRTLYLQSVTSIEERTRPNLSKTLKELGLVDGQELAVADVTTPQTVLFKLHFTS
On to B1, for which the Km is listed as 243 µM.

B2: UBA3 A171T (NEDD8 activating enzyme, NAE (UBA3 A171T)) (Homo sapiens; A171T) (protein)
chain: B1 chain with A170T
Consider B2, for which the Km worked out at 1006 µM.
